According to the nanobody polyreactivity screen of Harvey et al. (2022):

Test: yeast display, Sf9 membrane polyspecificity reagent, FACS + sequencing; frameworks hold sequencing errors
How it was run: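 Nanobodies from a synthetic yeast display library (Saccharomyces cerevisiae BJ5465), induced 36–48 hours with galactose, were stained 1 hour at 4 °C with 10% biotinylated, detergent-solubilized Sf9 membrane reagent, enriched on streptavidin microbeads, then FACS-sorted. Anti-HA (expression) and streptavidin (reagent binding) fluorescence set low and high (top ~1%) gates. Polyreactivity labels come from the gate of origin. Genes were colony-PCR amplified, MiSeq 2 × 250 sequenced and filtered by CDR length.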

Sequence	polyreactivity (PSR sort gate)
QVQLVESGGGLVQAGGSLRLSCDASGFTFRAYPIGWYREAPGKERELVAAITYSGGRTYYADSVKGRFTISRDNAKNTVYLQMNSLKPEDTAVYYCANYDYWGQGTQVTVSS	high polyreactivity
QVQLVESGGGLVQAGGSLRLSCDASGFTFYRYAMGWYRQAPGKERELVAAISSSGSSTYYADSVKGRFTISRDNAKNTVYLQMNSLKPEDTAVYYCAKRLGGSRPYYYWGQGTQVTVSS	high polyreactivity
QVQLVESGGGLVQAGGSLRLSCDASGIIFPRYAMGGYRQAPGKERELVAAITIGGRTNYADSVKGRFTISRDNAKNTVYLQMTSLKPEDTAVYYCAAQTYVPYYEYDYWGQGTQVTVSS	low polyreactivity
QVQLVESGGGLVQAGGSLRLSCDASGIIFQYYAMGWYRHAPGKERELVAAISWSGGSTYYADSVKGRFTISRDNAKNTVYLQMNSLKPEDTAVYFCAARSRSFWPYEGDYWGQGTQVTLSS	low polyreactivity
QVQLVESGGGLVQAGGSLRLSCDASGITFDDYSRGWYRQAPGKERELVAAISGSGGSTYYADSVKGRFTISRDNAKNTVFLQMHSLKPEDTAVYYCAASGPEGQYLWYDYWGKGTQVTVSS	high polyreactivity
QVQLVESGGGLVQAGGSLRLSCDASGITFGYYAMGWYRQAPGKERELVAAISNSGRTYYADSVKGRFTISRDNAKNSVYLQMNSLKPEDTAVYYCAADDAYYDFYFWGQGTQVTVSS	low polyreactivity
QVQLVESGGGLVQAGGSLRLSCDASGITSHWYVMGWYRQAPGKERELVAAINSSGGRTSYADSVKGRFTISRDNAKNTVYLQMNSLKPEYTAVYYCAAGYTHSYFLGATGKVDYWGQGTQVTVSS	low polyreactivity
QVQLVESGGGLVQAGGSLRLSCDASGLIFYSNAMGWYRQAPGKERELVAAISSSGGSTYYADCVKGRFTISRDNAKNTVYLQMNSLKPEDTAVYFCAAAGDDYWGQGTQVTVSS	low polyreactivity
QVQLVESGGGLVQAGGSLRLSCDASGLTFRLYTMGWYRQAPGKETELGAAITYSGDSTYYADSVKGRFTISRDNAKNTDYLQMNSLKPEDTAVYYCAARKYYARYYWGQGTQVTVSW	high polyreactivity
QVQLVESGGGLVQAGGSLRLSCDASGLTFSWYAMGWSRQAPGKERELVAAISRSGGSTYYADSVKGRFSISRDKAKNTVYLQMNSLKPEDTGVYYCAAETDIAPDYDYWGQGTQVTVSS	low polyreactivity
QVQLVESGGGLVQAGGSLRLSCDASGNTYLNALGWYRQAPGKERELVAAISKGGADTYYADSVKGRFTISRDNAKNTVYLQMNSLKPEDTAVYYCAADGYADGWWVEYPWTYDYWGQGTQVTVSS	low polyreactivity
QVQLVESGGGLVQAGGSLRLSCDASGRIFGYYTMGWYRQAPGKERELVAAISNSGVSTYYADSVKGRFTISRDNAKNTVYLQMNSLKPEDTAVYYCNARLYSYYKFNYWGQGTQVTVSS	high polyreactivity
QVQLVESGGGLVQAGGSLRLSCDASGRIFYFYAMGWYRQAPGKESELVAAISTSGGSTYYADSVKGRFTISRDNAKNTVYLQMNSLKPEDTAVYYCAARYRYYGSEYDYWGQGTQVTVSS	low polyreactivity
QVQLVESGGGLVQAGGSLRLSCDASGRIFYRYVMGWYRQAPGKERELVAAIRNSGGSTYYADSVKGRFTISRDNAKNTVYLQMNSMKPEDTAVYYCAKRYGTSFYVGSAKIGYDYWGQGTQVTLSS	high polyreactivity
QVQLVESGGGLVQAGGSLRLSCDASGRILHYYAMGWYRQAPGKERELVATISISGGNTRYADSVKGRFTISRDNAKNTVYLQMNSLKPEDTAVYYCDARPYAGFDNWGQGTQVTVSS	high polyreactivity
QVQLVESGGGLVQAGGSLRLSCDASGRTFNYNAMGWYRQAPGKERELVAAISGNGGNTYYADSVKWRFTISRDNAKNTVYLQMNSLKPEDTAGYYCNAVYRYYREWKYDYWGQGTQVTVSS	high polyreactivity

Sequence	polyreactivity (PSR sort gate)
QVQLVESGGGLVQAGGSLRLSCDASGRTFYANDMGWYRQAPGKERELVAAISSSVTSTHYADSVKGRFTISRDNAKNTVYLQMNSLKPEDTAVYYCNKDPIREVQPPGPSEMDYWGQGTQVTVSS	low polyreactivity
QVQLVESGGGLVQAGGSLRLSCDASGRTSRWNAMGCYRQAPGKERELVAAISSGSSTTYADSVKGRFTISRDNAKNTVYLQMNSLKPEATAVYYCNAKSGSRFVYRRYYTYNSWGQGTQVTVSS	high polyreactivity
QVQLVESGGGLVQAGGSLRLSCDASGSIFDGYGMGWYRQAPGKERELVASITWNDGSTYYAASVKGRFTISRDNATNTVYLQMNSLKPEDTAVYYCAADQWGYEYDYWGQGTQVTVSS	low polyreactivity
QVQLVESGGGLVQAGGSLRLSCDASGSIFDYNTMGWYRQAPGKERELIAVISGTGGSTYYGDSVKGRFTISRDNAKNTVYLEMNSLKPEDTAVYYCAAAWYYSSRAFHATWGHDYWGQGTQVTVSS	low polyreactivity
QVQLVESGGGLVQAGGSLRLSCDASGSIFGGYAMGWYRQAHGKARELVAGISSGGSTYYADSVKGRFTISRDNAKNTVYLQMNSLKPEDTAVYYCATSTYAYRRNSYYYTRPRFGYCGQGTQVTVSS	high polyreactivity
QVQLVESGGGLVQAGGSLRLSCDASGSIFRYYGMGWYRQAPGKERELVAAISARGGSTRYADSVKGRFTISRDNAKNTVYLQMNSLKPEDTAVYYCAAGYPYDYDYWGQGTQVTVSS	high polyreactivity
QVQLVESGGGLVQAGGSLRLSCDASGSIFYNNAMGWYRQAPGKERELVATIRRSGGSTYYADSVKGRFTISRDNAKNTVYLQMNSLKPEDTAVYYCAADYTPDLLSKVDYWGQGTQVTVSS	low polyreactivity
QVQLVESGGGLVQAGGSLRLSCDASGSTFAYNVMGWYRQAPGKERELVAAISRSGGSTYYADSVKGRFTISRDNAKNTVYLQMNSLKPEDTAVYYCAKLFRPRLQDGYWGQGSQVTVSS	high polyreactivity
QVQLVESGGGLVQAGGSLRLSCDASGSTFDTYAMGCYTQAPGKERELVAAITEDGASTYYADSVKGRFTISRDNAKYTVYLQMNSLKPEDTAVYYCAAEPTYWPVWYVLYDYLGQGTQVTVSS	low polyreactivity
QVQLVESGGGLVQAGGSLRLSCDASGSTFGANAMGWYRQAPGKEREFVAAISRSGVRTYYADSVKGRFTISRDNAKNTVYLQMNSLKPEDTAVYYCAADGYWWTYTRYDYWGQGTQVTVSS	low polyreactivity
QVQLVESGGGLVQAGGSLRLSCDASGSTFPSYTMGWSRQAPGKERELVAVIRLSSGSTYYADSVKGRFTISRDNAKNTVYLQMNSLKPEDTAVYYCNTGRYHYFPNYWYDYWGQGTQVTVSS	low polyreactivity
QVQLVESGGGLVQAGGSLRLSCDASGSTFYVYAMGWYRQAPGKERELVASINSSTSTNYADSVKGRFTISRDNAKNTVYLQMNSLKPEDTAVYYCAADSRVPEYRSPKNDYWGQGTQVTVSS	low polyreactivity
QVQLVESGGGLVQAGGSLRLSCDASGSTLSENVMGWYRQAPGKERELVATISYSGDSTYYADSVKGRFTISRDNAKNTVYLQMNSLKPEDTAVYYCAAGVGWDFAYWGQGTQVTVSS	low polyreactivity
QVQLVESGGGLVQAGGSLRLSCDAYGSIFRLYAMGWFRQAPGKEREFVAAIDKRGGRTHYADSVKGRFTISRDNAKNTVYLQITSLKPEDTAVYYCAAKAYVVTNGHGKLDYWGQGPQVTVSS	high polyreactivity
QVQLVESGGGLVQAGGSLRLSCDDSGRIFGGYGMGWYTQAPGKEGELVAAISARGGSTYYADSVKGRFTISRDNAKNTVYLQMNSLKPEDTEFYYCAAVEASSRGYYDYDYWGQGTQVTVSS	low polyreactivity
QVQLVESGGGLVQAGGSLRLSCGASGFISTYYAMGWYRQAPGKERELVAAISWNGGSTYYADSVKGRFTISRDNAKNTVYLQMNSLKPEDTAVYYCAAYLGKWRHFYSSDYDYWGQGTQVTVSS	low polyreactivity
